T1: Rpn1^PC1 (Rpn1^391–642) (yeast (BY4741), UniProt P38764 391-642)
T1 sequence (looked up): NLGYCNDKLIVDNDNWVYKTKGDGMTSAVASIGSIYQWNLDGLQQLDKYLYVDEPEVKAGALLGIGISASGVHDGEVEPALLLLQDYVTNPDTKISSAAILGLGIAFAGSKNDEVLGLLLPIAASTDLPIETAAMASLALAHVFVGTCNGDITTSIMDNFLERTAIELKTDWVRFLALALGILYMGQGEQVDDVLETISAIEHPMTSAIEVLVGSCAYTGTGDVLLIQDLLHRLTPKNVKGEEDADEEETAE

B1: Dsk2^UBL (domain or fragment, yeast (BY4741), UniProt P48510 1-76, looked up)
chain: MSLNIHIKSGQDKWEVNVAPESTVLQFKEAINKANGIPVANQRLIYSGKILKDDQTVESYHIQDGHSVHLVKSQPK
B2: Ubp6^UBL (domain or fragment, yeast (BY4741), UniProt P43593 1-80, looked up)
chain: MSGETFEFNIRHSGKVYPITLSTDATSADLKSKAEELTQVPSARQKYMVKGGLSGEESIKIYPLIKPGSTVMLLGTPDAN
modifications: 15N-labelled
B3: Rub1 (natural protein, yeast (BY4741), UniProt Q03919 1-77, looked up)
chain: MIVKVKTLTGKEISVELKESDLVYHIKELLEEKEGIPPSQQRLIFQGKQIDDKLTVTDAHLVEGMQLHLVLTLRGG
modifications: 15N-labelled

Each binder was assayed against T1, Rpn1^PC1 (Rpn1^391–642) (assay: NMR titration).

Row | Kd [µM] | Binder
1 | 22 ± 12 | B1
2 | 40 ± 31 | B2
3 | 280 ± 20 | B3
